According to patent publication CN101643510A:

How the values were obtained:
[1] = target: CD25人源化单抗 (Zenapax, ROCHE公司产品); assay: sandwich ELISA, compared with the commercial anti-kappa capture antibody
[2] = target: CD25人源化单抗 (Zenapax, ROCHE公司产品); assay: sandwich ELISA, 5G7 coated at 1 μg/ml, Zenapax titrated, HRP anti-human IgG Fc gamma detection

灵敏度 fold against 市售抗体 [1]: 100 fold | 灵敏度 (detection sensitivity) [2]: 0.01 ng/mL
B1: 重组抗CD25人源化单克隆抗体的抗体 5G7 (antibody, V domains shown)
VH: EVKLEESGGGLEQPGGSMKLSCVASGFTFSNYWMNWVRQSPDKGLEWVAQIRWKSDNYATHYAESVKGRFSISRDDSKSSVYLQMNNLRVEDSGIYYCTGGGSYVAHWGQGTLVTVSA
VL: DIVLTQSPASLAVSLGQSVTVSCRASESVENYGTTLMQWYQQKPGQPPKLLIYGVSNVESGVPARFSGSGSGTDFTLNIHPVEEDDIAMYFCQQSRKVPWTFGGGTKLEIKR
